Values quoted from earlier work, collected in PMC3274258.
“And” between values parts separate entries of the source, which are not always exact repeats. Identical values can stand only once. Like-named read-outs stand apart in the source and are kept apart here. Blank lines part the entries; values can stand above or below the substance they belong to.

Columns and labels:
Asp72 = test: pH titration; the review does not name the technique, and UV-vis absorption of the retinal chromophore is inferred; details: dark state
Asp76 = Asp76 (UniProt position 76, GLRYIDWLVTT)
Asp193 = Asp193 (UniProt position 193, LTPTVDVALIV); details: dark (ground) state
[1] = biological target: Halobacterial transducer of SRI (HsHtrI); test: not stated in the review (pKa determination quoted from ref 124); details: pH
[2] = biological target: HtrII (Natronomonas pharaonis) (UniProt P42259)
[3] = biological target: HtrII (Natronomonas pharaonis) (UniProt P42259); remark: listed apart in the source
[4] = biological target: HtrII (Natronomonas pharaonis) (UniProt P42259); remark: listed apart in the source
[5] = biological target: Halobacterial transducer of SRII, truncated (NpHtrII, pHtrII) (UniProt P42259); test: not stated in the review (pKa determination of ref 50); details: pH
[6] = biological target: Salinibacter transducer of SRI (SrHtrI); test: pH titration experiments (ref 123; detection not specified in the review)

Sequence of HtrII (Natronomonas pharaonis) (P42259 whole entry, the tested form may be a part): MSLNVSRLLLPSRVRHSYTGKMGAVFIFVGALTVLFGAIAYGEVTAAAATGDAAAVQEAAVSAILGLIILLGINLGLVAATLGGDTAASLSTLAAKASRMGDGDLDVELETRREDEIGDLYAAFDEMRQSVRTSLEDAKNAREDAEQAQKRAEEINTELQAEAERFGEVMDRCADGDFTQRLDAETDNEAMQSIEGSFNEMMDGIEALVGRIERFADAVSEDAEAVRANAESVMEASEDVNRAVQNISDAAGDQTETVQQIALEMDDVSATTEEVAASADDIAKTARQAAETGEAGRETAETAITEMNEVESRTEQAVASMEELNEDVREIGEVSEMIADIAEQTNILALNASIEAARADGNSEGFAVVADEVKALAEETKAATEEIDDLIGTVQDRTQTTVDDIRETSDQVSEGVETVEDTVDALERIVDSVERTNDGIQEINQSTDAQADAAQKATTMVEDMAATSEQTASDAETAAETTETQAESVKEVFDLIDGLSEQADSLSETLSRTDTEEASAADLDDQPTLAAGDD
Sequence of SRII (P42196 whole entry): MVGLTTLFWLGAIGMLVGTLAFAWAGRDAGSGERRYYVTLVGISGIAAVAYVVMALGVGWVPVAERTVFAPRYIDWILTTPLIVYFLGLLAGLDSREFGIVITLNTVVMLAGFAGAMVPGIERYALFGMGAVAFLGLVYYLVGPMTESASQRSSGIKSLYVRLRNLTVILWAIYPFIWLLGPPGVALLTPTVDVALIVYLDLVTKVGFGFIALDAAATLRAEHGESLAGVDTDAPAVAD
Sequence of Halobacterial transducer of SRII, truncated (NpHtrII, pHtrII) (P42259 whole entry, the tested form may be a part): as the sequence (P42259 whole entry, the tested form may be a part) above

Substance: Salinibacter sensory rhodopsin I (SrSRI) (Salinibacter ruber)
pKa (Asp72; SrSRI without SrHtrI): 4.3

Substance: Sensory rhodopsin I (HsSRI) (Halobacterium salinarum)
pKa (Asp76; HsSRI associated with HsHtrI): 8.5 | pKa (Asp76; HsSRI without HsHtrI): 7.2

Substance: SrSRI-SrHtrI fusion (Salinibacter sensory rhodopsin I fused to its full-length transducer) (Salinibacter ruber)
pKa (Asp72; SrSRI associated with SrHtrI (fusion construct)): 4.9

Substance: Sensory rhodopsin II (NpSRII; pharaonis phoborhodopsin, ppR) (Natronomonas pharaonis)
pKa (Asp193; NpSRII bound to truncated NpHtrII (1-114 or 1-159)): 5.6 | pKa (Asp193; NpSRII transducer-free): 6.4

Substance: Sensory rhodopsin II (NpSRII, pharaonis phoborhodopsin, ppR)
pKa, Asp193 of NpSRII [5]: 6.4 pH units and 5.6 pH units

The next lines start with the values.

pKa, Asp76 of HsSRI (Schiff-base counterion) [1]: 7.2 pH units and 8.5 pH units
Substance: Sensory rhodopsin I (HsSRI)

Kd [2]: 15 µM | Kd [3]: 0.16 µM | Kd [4]: 5 µM
Substance: SRII (from UniProt P42196)

pKa, Asp72 of SrSRI (Schiff-base counterion) [6]: 4.3 pH units and 4.9 pH units
Substance: Salinibacter sensory rhodopsin I (SrSRI)
